One molecule from article PMC2120133 (The Journal of Cell Biology, 1994) can be followed below.

A value given as a limit tells only on which side of the number the result lay.

The experiment concerns the target Gal4 DNA-binding domain-Nup1p carboxy-terminal fusion (pSWB11) (yeast, UniProt P20676 655-1076). Nature of the experiment: two-hybrid.

Sequence of Gal4 DNA-binding domain-Nup1p carboxy-terminal fusion (pSWB11) (P20676 655-1076): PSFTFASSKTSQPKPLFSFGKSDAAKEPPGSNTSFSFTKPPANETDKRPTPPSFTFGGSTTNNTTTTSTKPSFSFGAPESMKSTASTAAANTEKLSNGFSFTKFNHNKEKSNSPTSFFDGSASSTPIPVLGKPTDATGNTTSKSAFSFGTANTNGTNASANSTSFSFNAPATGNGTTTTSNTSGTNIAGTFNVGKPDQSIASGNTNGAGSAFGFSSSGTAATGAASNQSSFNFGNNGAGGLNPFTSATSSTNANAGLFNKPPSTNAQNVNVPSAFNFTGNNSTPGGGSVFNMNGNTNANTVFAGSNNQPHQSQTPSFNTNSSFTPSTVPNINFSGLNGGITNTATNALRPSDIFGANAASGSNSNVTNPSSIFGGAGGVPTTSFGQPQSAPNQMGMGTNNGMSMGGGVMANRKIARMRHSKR

B1: Gal4 activation domain-Srp1p fusion (pSWB17) (domain or fragment, yeast, UniProt Q02821 30-542, looked up)
chain: DELRRRRDTQQVELRKAKRDEALAKRRNFIPPTDGADSDEEDESSVSADQQFYSQLQQELPQMTQQLNSDDMQEQLSATVKFRQILSREHRPPIDVVIQAGVVPRLVEFMRENQPEMLQLEAAWALTNIASGTSAQTKVVVDADAVPLFIQLLYTGSVEVKEQAIWALGNVAGDSTDYRDYVLQCNAMEPILGLFNSNKPSLIRTATWTLSNLCRGKKPQPDWSVVSQALPTLAKLIYSMDTETLVDACWAISYLSDGPQEAIQAVIDVRIPKRLVELLSHESTLVQTPALRAVGNIVTGNDLQTQVVINAGVLPALRLLLSSPKENIKKEACWTISNITAGNTEQIQAVIDANLIPPLVKLLEVAEYKTKKEACWAISNASSGGLQRPDIIRYLVSQGCIKPLCDLLEIADNRIIEVTLDALENILKMGEADKEARGLNINENADFIEKAGGMEKIFNCQQNENDKIYEKAYKIIETYFGEEEDAVDETMAPQNAGNTFGFGSNVNQQFNFN
Consider B1, for which the “fold increase in beta-galactosidase activity” value is > 160 fold.
